Assay results reported in paper PMC3088361 (Biochemistry, 2011).

Target: HIV-1 YU-2 gp120 wild type (HIV-1 (isolate YU-2), UniProt P35961 32-498)
Test: SPR

Binder: CNLHWCQLRCKSLGLLGKCAGSFCACV (designed binder, C-terminal amide (-NH2); oxidized peptide) [[F5W]CD4F23]
- binding result: binds
